This passage reports stoichiometry N results from paper PMC3574120.

The target of this experiment is FrpB F3-3 variant (Neisseria meningitidis). Put plainly: crystal structure; FrpB F3-3, space group P212121, three copies in the asymmetric unit about a non-crystallographic 3-fold axis, 2.40 Å; C8E5 detergent; crystals from the monomeric SEC peak.

In general, stoichiometry N refers to the number of molecules, sites or subunits per partner or assembly. Take FrpB F3-3 variant (natural protein): the stoichiometry N was found to be 3.
